Source: paper PMC8373119

How the values were obtained:
[1] = target: ΔEGF/Lam_Celsr3 (mouse Celsr3-Flag lacking all the EGF repeats and laminin domains) (mouse) (UniProt Q91ZI0); assay: co-IP
[2] = target: ΔLaminin G1_Celsr3 (mouse Celsr3-Flag lacking the laminin G1 domain) (mouse) (UniProt Q91ZI0); assay: co-IP

B1: mouse Frizzled3 (Frizzled3-HA) (receptor)
chain: HSLFSCEPITLRMCQDLPYNTTFMPNLLNHYDQQTAALAMEPFHPMVNLDCSRDFRPFLCALYAPICMEYGRVTLPCRRLCQRAYSECSKLMEMFGVPWPEDMECSRFPDCDEPYPRLVDLNLVGDPTEGAPVAVQRDYGFWCPRELKIDPDLGYSFLHVRDCSPPCPNMYFRREELSFARYFIGLISIICLSATLFTFLTFLIDVTRFRYPERPIIFYAVCYMMVSLIFFIGFLLEDRVACNASSPAQYKASTVTQGSHNKACTMLFMVLYFFTMAGSVWWVILTITWFLAAVPKWGSEAIEKKALLFHASAWGIPGTLTIILLAMNKIEGDNISGVCFVGLYDVDALRYFVLAPLCLYVVVGVSLLLAGIISLNRVRIEIPLEKENQDKLVKFMIRIGVFSILYLVPLLVVIGCYFYEQAYRGIWETTWIQERCREYHIPCPYQVTQMSRPDLILFLMKYLMALIVGIPSIFWVGSKKTCFEWASFFHGRRKKEIVNESRQVLQEPDFAQSLLRDPNTPIIRKSRGTSTQGTSTHASSTQLAMVDDQRSKAGSVHSKVSSYHGSLHRSRDGRYTPCSYRGMEERLPHGSMSRLTDHSRHSSSHRLNEQSRHSSIRDLSNNPMTHITHGTSMNRVIEEDGTSA
With B1 the percent reduction of the interaction against wild-type Celsr3 [1] was 68% and the percent reduction of the interaction against wild-type Celsr3 [2] was 66%.
